Article PMC3488230

Experiments:
Experiment in all cases: EMSA
Mfd D7AAA = Mfd D7AAA (Escherichia coli, UniProt P30958 1-1148, E1045A;D1048A;R1049A)
Mfd WA550 RA953 = Mfd WA550 RA953 (Escherichia coli, UniProt P30958 1-1148, W550A;R953A)
Mfd RA953 = Mfd RA953 (Escherichia coli, UniProt P30958 1-1148, R953A)
Mfd WA550 = Mfd WA550 (Escherichia coli, UniProt P30958 1-1148, W550A)

B1: 50 bp oligonucleotide duplex (dsDNA)
DNA 1: CTCATACGACGCTGTCGATCCAGTCACTGTCATGCGCTATCCGATCCTAG
DNA 2: CTAGGATCGGATAGCGCATGACAGTGACTGGATCGACAGCGTCGTATGAG
binding result (Mfd D7AAA): binds | binding result (Mfd WA550 RA953): no binding | binding result (Mfd RA953): binds | binding result (Mfd WA550): binds
